Literature values in article PMC4155411.

Biological target: HPr (Escherichia coli) (UniProt P0AA04)
Assay: PRE NMR titration

**Q.** Which Kd does the source give for “Enzyme I N-terminal domain (EIN) N-terminal domain (from UniProt P08839)” here?
**A.** The Kd was 7 µM.
